Assay [1] deals with T1, EBOV GPdTM (Ebola virus (EBOV), UniProt Q05320 33-637).
T1 sequence: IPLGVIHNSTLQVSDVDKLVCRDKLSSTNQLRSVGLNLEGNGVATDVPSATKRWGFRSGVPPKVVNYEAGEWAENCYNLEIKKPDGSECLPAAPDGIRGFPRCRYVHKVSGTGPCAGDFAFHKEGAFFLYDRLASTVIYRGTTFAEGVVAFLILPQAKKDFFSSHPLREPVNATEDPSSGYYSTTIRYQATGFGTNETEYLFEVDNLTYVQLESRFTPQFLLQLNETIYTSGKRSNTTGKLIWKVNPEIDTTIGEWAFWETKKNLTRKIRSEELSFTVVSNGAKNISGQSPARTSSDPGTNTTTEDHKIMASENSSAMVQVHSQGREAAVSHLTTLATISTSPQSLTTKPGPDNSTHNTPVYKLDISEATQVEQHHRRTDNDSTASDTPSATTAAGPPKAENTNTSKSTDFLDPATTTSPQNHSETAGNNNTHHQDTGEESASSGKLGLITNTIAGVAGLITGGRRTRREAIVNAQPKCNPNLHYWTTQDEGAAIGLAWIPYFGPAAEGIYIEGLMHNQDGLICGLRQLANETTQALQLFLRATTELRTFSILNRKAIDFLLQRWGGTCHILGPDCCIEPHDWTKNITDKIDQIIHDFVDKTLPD

Assay [2] concerns the target T2, MARV GPdTM (Marburg virus (MARV), UniProt P35253 19-637).
T2 sequence: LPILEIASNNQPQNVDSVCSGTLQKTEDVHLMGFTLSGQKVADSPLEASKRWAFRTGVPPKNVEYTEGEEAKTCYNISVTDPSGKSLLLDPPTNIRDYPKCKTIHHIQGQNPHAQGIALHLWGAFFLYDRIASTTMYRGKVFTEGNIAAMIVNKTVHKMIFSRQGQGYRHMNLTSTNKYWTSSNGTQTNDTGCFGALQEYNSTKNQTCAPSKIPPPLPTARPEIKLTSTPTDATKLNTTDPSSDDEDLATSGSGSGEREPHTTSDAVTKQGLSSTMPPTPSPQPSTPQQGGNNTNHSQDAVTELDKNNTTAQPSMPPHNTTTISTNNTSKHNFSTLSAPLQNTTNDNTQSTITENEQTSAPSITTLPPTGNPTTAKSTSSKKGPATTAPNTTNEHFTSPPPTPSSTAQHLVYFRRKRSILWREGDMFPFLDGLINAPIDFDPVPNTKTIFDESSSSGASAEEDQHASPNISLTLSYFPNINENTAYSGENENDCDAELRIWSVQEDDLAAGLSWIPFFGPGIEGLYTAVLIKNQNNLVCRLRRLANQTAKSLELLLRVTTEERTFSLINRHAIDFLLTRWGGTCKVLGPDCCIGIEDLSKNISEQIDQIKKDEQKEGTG

Assay [3] deals with T1, EBOV GPdTM. Description: ELISA, purified GPdTM immobilized, serial dilutions of purified mouse mAb. In general terms: ELISA stands for enzyme-linked immunosorbent assay.
In assay [4] the target is T2, MARV GPdTM. The description is as above.
In assay [5] the target is T3, RESTV GPdTM (Reston virus (RESTV), UniProt Q66799 34-638).
T3 sequence: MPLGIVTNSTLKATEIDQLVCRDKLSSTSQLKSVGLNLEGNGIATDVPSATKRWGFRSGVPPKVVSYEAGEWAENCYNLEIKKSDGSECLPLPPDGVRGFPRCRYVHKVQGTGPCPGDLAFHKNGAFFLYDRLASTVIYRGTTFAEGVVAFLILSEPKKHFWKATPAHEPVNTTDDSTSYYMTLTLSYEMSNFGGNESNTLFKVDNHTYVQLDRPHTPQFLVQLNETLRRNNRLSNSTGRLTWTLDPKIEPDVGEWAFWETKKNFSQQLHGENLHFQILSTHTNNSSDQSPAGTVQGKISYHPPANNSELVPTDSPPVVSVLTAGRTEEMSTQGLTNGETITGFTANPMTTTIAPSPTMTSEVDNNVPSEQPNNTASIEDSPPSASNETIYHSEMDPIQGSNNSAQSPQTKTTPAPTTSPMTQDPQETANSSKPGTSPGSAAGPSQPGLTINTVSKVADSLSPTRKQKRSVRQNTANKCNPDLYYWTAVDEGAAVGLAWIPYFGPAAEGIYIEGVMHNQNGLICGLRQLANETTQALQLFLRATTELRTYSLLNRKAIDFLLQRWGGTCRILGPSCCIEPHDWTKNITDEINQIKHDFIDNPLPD

Assay [6] addresses T3, RESTV GPdTM. Description: ELISA, purified GPdTM immobilized, serial dilutions of purified mouse mAb.

B1: murine monoclonal antibody 2D8 (antibody, V domains shown)
VH: EVQLQESGGELVRPGTSVKISCKASGYTFTNFWLGWIKERPGHGLEWIGDIYPGGHYTNYNENFKGKATLTADTSSNTAYMQVSSLTSEDSAVYFCFTQYYDMDYWGQGTSVTVSS
VL: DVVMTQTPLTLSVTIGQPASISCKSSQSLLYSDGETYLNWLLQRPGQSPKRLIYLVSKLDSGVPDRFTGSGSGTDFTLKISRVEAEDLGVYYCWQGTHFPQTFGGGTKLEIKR
For B1, the half-maximal effective concentration (EC50) (commonly the concentration that produces a half-maximal response) with EBOV GPdTM [1] is > 10 µg/mL; with MARV GPdTM [2] it was 0.0445 µg/mL.

B2: murine monoclonal antibody 21B2 (antibody, V domains shown)
VH: EVQLQESGAELVRPGASVTLSCKTSGYTFTDYEMHWVKQTPVHGLEWIGAIDPETGGTAYNQKFKGKATLTADKSSSTAYMELSRLTSEDSAVYYCTGNYATDYWGQGTSVTVSS
VL: DIVMSQSPSSLAVSAGEKVTMSCKSSQSLFNSRSRKNYLAWYQLKPGQSPKLLIYWASTRESGVPDRFTGSGSGTDFTLTISSVQAEDLAVYYCKQSNYLWTFGGGTKLEIKR
notes: also called m21B2
With B2, the binding result with EBOV GPdTM [3] was “no binding”. In the assay with MARV GPdTM [2], this molecule had a 50% effective concentration (EC50) of 0.0688 µg/mL.

B3: murine monoclonal antibody 4B8 (antibody, V domains shown)
VH: EVQLQESGPGILQPSQTLSLTCSFSGFSLRTLGMGVGWIRQSSGKGLEWLAHIWWSDENYYNPALKSRLTISKDTSKNQVFLRIANVDTAETATYYCARIAYDGYFDYWGQGTSLTVSS
VL: KFPSQLLLLLLFGIPGDRVTITCKASEDIYNRLAWYQQKPGNAPRLLISGATSLETGVPSRFSGSGSGKDYTLSITSLQTEDVATYYCQQYWTTPWTFGGGTKLEIKR
notes: also called m4B8
Consider B3, for which the binding result in the assay with MARV GPdTM [4] is on record as “no binding”. The same molecule came in with an EC50 with RESTV GPdTM [5] of 0.157 µg/mL.

B4: murine monoclonal antibody 17C6 (antibody, V domains shown)
VH: EVQLQESGPGLVQPSQSLSITCTVSGFSLTSYGVHWVRQSPGKGLEWLGVIWSGGSTDYNAAFISRLSISKDNSKSQVFFKMNSLQADDTAIYYCARNWFDYDNYYSMDYWGQGTSVTVSS
VL: DIQMTQTTSSLSASLGDRVTISCRASQDISNYLNWYQQKPDGTVKLLIYYTSRLHSGVPSRFSGSGSGTDFSLTISNQEPEDIATYYCQQYSNLPWTFGGGTKLEIKR
Regarding B4, the EC50 in the assay with EBOV GPdTM [1] worked out at 0.04 µg/mL; with RESTV GPdTM [5] it was 1.56 µg/mL.

B5: murine monoclonal antibody 8C4 (antibody, V domains shown)
VH: EVQLQESGPELKKPGETVKISCKASGYTFTTYGMSWVKQAPGKGLKWMGRINTYSGVPTYADEFKGRFAFSLENSASTAYLQINNLKNEDTATYFCARGDGGHWFANWGQGTLVTVSA
VL: DIQMTQSPSSLSASLGGKVTITCKASQDINKNIAWYQHKPGKGPRLLIWYKSALQPGIPSRFSGSGSGRDYSFSISNLEPEDIATYSCLQYDNLPPTFGGGTKLEIKR
notes: also called m8C4
As for B5, the binding result with RESTV GPdTM [6] and with MARV GPdTM [4] was “no binding” each time. Also, the half-maximal effective concentration (EC50) in the assay with EBOV GPdTM [1] is 0.26 µg/mL.

B6: murine monoclonal antibody 16G8 (antibody, V domains shown)
VH: EVQLQESGPGLVKPGASVKISCKASGYSFTGYYMNWVKQSPEKSLEWIGEINPSTGGTTYNQKFKAKATLTVDKSSSTAYMQLKSLTSEDSAVYYCVRYSHYYGSGSWYFDVWGTGTTVTVSS
VL: DIQMTQSPASLSASVGETVTITCRASENIYSNLAWYQQKQGKSPQLLVNAATNLADGVPSRFSGSGSGTQFSLKINSLQPEDFGSYYCQHFYVTPYMFGSGTKLEIKR
notes: also called m16G8
On to B6, for which the binding result in the assay with MARV GPdTM [4] is given as “no binding”. Also, the concentration for a half-maximal effect (EC50) with EBOV GPdTM [1] and with RESTV GPdTM [5] was > 10 µg/mL throughout.

The values are drawn from patent US20180237502A1 (INTEGRATED BIOTHERAPEUTICS, published 2018).
